Publication PMC2830092

Biological target: FLAG-Pen-2 (human) (UniProt Q9NZ42)
Assay: STEM mass measurement

Sequence of UniProt Q9NZ42 (Q9NZ42 whole entry): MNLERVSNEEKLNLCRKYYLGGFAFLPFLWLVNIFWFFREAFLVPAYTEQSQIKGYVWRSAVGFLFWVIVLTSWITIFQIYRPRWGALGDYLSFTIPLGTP

Q: For “Aph1α2-HA (from UniProt Q96BI3 1-265) (natural protein)”, which stoichiometry N is on record?
A: 1
